Laboratory results from article PMC8808741.
Residue numbers refer to the chain shown, from its start.

B1: T18.3 (structured_RNA)
RNA: GGACUUGGAUAACCUCACCGCAAUGGCGGCUUGUCAGACGACUCGCUGAGGAUCCGAG
modifications: all C and U 2'-fluoro
B2: T18.3-Bio (structured_RNA)
RNA: B1 RNA
modifications: all C and U 2'-fluoro
B3: Mut1 (structured_RNA)
RNA: B1 RNA with C30A, U31G, U32G
modifications: all C and U 2'-fluoro

Columns and labels:
FVIII = FVIII (UniProt P00451 20-2351); assay: filter binding
FXa = FXa (UniProt P00742;P00742 41-179;235-488); assay: filter binding
prothrombin (FII) = prothrombin (FII) (UniProt P00734 44-622); assay: filter binding
FX = FX (UniProt P00742;P00742 41-179;183-488); assay: filter binding
thrombin (FIIa) = thrombin (FIIa) (UniProt P00734;P00734 315-363;364-622); assay: filter binding
[1] = target: T1, modified FV (B-domain-truncated factor V) (human, UniProt P12259 29-838+1520-2224, R737Q;R1573Q;internal_change); assay: filter binding
FVa (activated factor V) [2] = target: T2, FVa (activated factor V) (human, UniProt P12259;P12259 29-737;1574-2224); assay: filter binding
FVa light chain = FVa light chain (UniProt P12259 1574-2224); assay: SPR
FVa heavy chain = FVa heavy chain (UniProt P12259 29-737); assay: SPR
FVa (activated factor V) [3] = target: T2, FVa (activated factor V); assay: SPR
[4] = target: T1, modified FV (B-domain-truncated factor …); assay: SPR
FVa (activated factor V) [5] = target: T2, FVa (activated factor V); assay: filter binding; remark: listed apart in the source

FX, sequence (P00742 41-179, chain 1 of 2): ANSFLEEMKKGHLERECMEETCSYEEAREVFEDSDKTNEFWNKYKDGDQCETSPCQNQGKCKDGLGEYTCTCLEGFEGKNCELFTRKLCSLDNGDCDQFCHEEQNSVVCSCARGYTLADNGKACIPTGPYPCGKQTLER
FX, sequence (P00742 183-488, chain 2 of 2): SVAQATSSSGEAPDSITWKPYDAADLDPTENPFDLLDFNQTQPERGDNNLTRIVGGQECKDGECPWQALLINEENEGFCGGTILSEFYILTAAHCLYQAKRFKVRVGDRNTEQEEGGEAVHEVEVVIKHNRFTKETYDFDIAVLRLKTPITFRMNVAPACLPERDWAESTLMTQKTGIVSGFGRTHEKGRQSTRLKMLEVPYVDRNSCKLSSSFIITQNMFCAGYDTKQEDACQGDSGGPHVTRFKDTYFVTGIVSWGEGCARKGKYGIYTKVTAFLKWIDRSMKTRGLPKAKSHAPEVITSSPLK
FXa, sequence (P00742 41-179, chain 1 of 2): as the sequence (P00742 41-179, chain 1 of 2) above
FXa, sequence (P00742 235-488, chain 2 of 2): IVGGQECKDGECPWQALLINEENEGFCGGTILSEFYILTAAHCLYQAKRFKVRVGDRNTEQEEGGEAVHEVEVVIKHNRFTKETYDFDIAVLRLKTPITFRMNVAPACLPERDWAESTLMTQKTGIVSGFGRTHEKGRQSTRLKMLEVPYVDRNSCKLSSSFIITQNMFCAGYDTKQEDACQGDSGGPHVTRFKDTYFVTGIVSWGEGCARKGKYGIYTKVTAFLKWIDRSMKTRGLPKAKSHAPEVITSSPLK
FVIII, sequence (P00451 20-2351): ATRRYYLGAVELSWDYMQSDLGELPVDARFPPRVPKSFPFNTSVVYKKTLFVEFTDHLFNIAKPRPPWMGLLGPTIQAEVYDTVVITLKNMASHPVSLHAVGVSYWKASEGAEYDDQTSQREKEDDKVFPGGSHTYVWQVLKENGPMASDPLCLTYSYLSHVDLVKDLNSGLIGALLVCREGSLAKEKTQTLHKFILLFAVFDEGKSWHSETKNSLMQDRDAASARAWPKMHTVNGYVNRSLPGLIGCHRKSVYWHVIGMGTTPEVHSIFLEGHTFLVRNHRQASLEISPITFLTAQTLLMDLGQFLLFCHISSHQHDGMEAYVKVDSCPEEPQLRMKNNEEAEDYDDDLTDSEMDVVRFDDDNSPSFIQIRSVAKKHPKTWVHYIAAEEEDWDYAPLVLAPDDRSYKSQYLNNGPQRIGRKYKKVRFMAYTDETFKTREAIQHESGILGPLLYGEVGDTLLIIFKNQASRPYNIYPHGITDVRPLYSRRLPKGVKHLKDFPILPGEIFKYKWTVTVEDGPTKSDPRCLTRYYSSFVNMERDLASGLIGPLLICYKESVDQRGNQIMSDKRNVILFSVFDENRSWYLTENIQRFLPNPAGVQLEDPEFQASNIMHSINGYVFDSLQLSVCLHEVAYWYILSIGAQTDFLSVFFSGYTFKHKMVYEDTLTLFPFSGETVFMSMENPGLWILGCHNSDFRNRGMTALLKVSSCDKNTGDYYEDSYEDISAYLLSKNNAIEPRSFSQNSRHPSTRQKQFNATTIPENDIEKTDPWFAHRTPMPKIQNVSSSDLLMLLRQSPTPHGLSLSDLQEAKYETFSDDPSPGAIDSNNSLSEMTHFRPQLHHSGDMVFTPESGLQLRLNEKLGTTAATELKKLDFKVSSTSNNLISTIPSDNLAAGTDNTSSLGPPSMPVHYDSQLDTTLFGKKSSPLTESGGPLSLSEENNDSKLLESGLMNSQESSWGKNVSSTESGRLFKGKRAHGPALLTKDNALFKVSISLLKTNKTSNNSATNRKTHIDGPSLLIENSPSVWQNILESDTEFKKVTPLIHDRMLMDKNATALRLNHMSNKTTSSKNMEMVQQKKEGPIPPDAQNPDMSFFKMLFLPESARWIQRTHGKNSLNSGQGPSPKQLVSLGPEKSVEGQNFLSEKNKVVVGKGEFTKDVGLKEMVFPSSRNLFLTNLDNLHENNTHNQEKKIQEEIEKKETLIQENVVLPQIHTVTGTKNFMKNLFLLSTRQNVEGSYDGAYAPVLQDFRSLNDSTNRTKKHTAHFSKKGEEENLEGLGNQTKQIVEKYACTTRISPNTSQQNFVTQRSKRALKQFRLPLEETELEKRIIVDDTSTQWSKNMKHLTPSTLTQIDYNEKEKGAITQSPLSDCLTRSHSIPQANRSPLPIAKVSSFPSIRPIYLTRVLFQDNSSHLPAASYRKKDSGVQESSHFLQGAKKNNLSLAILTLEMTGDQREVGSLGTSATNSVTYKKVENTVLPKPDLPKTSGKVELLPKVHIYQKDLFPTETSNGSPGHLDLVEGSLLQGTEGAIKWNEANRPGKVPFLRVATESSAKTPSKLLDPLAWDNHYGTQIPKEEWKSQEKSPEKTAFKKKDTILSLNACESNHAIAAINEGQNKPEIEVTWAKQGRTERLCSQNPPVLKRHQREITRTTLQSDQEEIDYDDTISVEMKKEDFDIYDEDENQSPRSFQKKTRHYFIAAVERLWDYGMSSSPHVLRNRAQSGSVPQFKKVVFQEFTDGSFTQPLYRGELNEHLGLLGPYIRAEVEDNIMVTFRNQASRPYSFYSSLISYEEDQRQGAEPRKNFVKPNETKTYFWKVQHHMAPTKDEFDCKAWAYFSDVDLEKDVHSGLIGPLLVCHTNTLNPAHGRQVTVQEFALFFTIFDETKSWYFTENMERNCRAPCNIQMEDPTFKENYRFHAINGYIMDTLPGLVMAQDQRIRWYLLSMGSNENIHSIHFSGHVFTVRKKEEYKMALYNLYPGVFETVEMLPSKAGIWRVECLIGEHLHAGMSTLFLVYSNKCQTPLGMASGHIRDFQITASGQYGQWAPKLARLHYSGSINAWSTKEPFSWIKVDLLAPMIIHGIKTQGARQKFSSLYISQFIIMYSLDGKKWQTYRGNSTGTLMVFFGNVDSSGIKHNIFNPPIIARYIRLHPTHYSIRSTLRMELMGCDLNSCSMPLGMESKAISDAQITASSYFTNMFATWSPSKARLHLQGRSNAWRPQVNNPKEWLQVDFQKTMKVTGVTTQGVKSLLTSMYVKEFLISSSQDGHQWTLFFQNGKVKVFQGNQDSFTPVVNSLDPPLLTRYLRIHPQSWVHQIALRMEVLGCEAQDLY

Binder	binding result (FVIII)	binding result (FXa)	binding result (prothrombin (FII))	binding result (FX)	binding result (thrombin (FIIa))	Kd [1] [nM]	Kd (FVa (activated factor V) [2]) [nM]	Kd (FVa light chain) [nM]	Kd (FVa heavy chain) [nM]	Kd (FVa (activated factor V) [3]) [nM]	Kd [4] [nM]	Kd (FVa (activated factor V) [5]) [nM]
B1	no binding	no binding	no binding	no binding	no binding	28	0.99	–	–	–	–	–
B2	–	–	–	–	–	–	–	3.33 ± 0.69	113 ± 43	4.73 ± 0.69	11.4 ± 3	–
B3	–	–	–	–	–	410 ± 46	–	–	–	–	–	359 ± 323
